From US7351690B2, “Knockout identification of target-specific sites in peptides” (priority 2000, dated 2008) come the findings set out here.

Square brackets hold non-standard residues; d marks the D form. Ends that are not written are not given here. Nle = CCCC[C@H](N)C(=O)O

Assay [1] deals with T1, MC1-R (Mus musculus, UniProt Q01727).
T1 construct: membranes prepared from hMC3-R, hMC4-R, hMC5-R, and B-16 mouse melanoma cells (containing MC1-R); endogenous in cells; host or cells: B-16 mouse melanoma cells (membranes)
The experiment in a line: competitive inhibition binding assay, 125I-NDP-alpha-MSH, B-16 mouse melanoma cell membranes. Particulars: 1 μM test peptide; 0.4 nM 125I-NDP-alpha-MSH; B-16 mouse melanoma cell membranes. As for the experimental part: (§1) The competitive inhibition binding assay was conducted using membranes prepared from hMC3-R, hMC4-R, hMC5-R, and B-16 mouse melanoma cells (containing MC1-R) using 0.4 nM ^125I-NDP-alpha-MSH (New England Nuclear, Boston, Mass., USA) in 50 mM HEPES buffer containing 1 mM MgCl2, 2 mM CaCl2, and 5 mM KCl, at pH 7.2. The assay tube also contained a chosen concentration of the test peptide of this invention complexed to a rhenium metal ion, typically at a 1 μM concentration, for determining its efficacy in inhibiting the binding of ^125I-NDP-alpha-MSH to its receptor. Non-specific binding was measured by complete inhibition of binding of ^125I-NDP-alpha-MSH in the assay with the presence of 1 μM alpha-MSH. Incubation was for 90 minutes at room temperature, after which the assay mixture was filtered and the membranes washed three times with ice cold buffer. The filter was dried and counted in a gamma counter for remaining radioactivity bound to the membranes. 100% specific binding was defined as the difference in radioactivity (cpm) bound to cell membranes in the absence and presence of 1 μM alpha-MSH. The cpm obtained in presence of test compounds were normalized with respect to 100% specific binding to determine the percent inhibition of ^125I-NDP-alpha MSH binding. Each assay was conducted in triplicate and the actual mean valves are described.

In assay [2] the target is T2, hMC3-R (Homo sapiens, UniProt P41968).
T2 construct: expressed in transfected cells
The assay is described as follows: competitive inhibition binding assay, 125I-NDP-alpha-MSH, hMC3-R membranes. Particulars: 1 μM test peptide; 0.4 nM 125I-NDP-alpha-MSH; hMC3-R membranes. As to the method:
as §1

The target in assay [3] is T3, hMC4-R (Homo sapiens, UniProt P32245).
T3 construct: expressed in transfected cells
The assay is described as follows: competitive inhibition binding assay, 125I-NDP-alpha-MSH, hMC4-R membranes. Particulars: 1 μM test peptide; 0.4 nM 125I-NDP-alpha-MSH; hMC4-R membranes. As for the experimental part: as §1

The target in assay [4] is T4, hMC5-R (Homo sapiens, UniProt P33032).
T4 construct: expressed in transfected cells
The assay is described as follows: competitive inhibition binding assay, 125I-NDP-alpha-MSH, hMC5-R membranes. Conditions: 1 μM test peptide; 0.4 nM 125I-NDP-alpha-MSH; hMC5-R membranes. As to the method: as §1

T1 sequence (Q01727 whole entry): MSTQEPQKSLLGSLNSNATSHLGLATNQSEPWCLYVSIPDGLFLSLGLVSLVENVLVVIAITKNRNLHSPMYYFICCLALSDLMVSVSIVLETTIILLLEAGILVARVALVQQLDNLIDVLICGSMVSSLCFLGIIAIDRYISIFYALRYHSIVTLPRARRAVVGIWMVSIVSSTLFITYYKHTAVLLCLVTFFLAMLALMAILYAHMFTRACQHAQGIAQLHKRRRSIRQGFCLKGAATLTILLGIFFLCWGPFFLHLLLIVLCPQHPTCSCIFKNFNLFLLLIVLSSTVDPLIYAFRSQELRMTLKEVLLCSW
T2 sequence (P41968 whole entry): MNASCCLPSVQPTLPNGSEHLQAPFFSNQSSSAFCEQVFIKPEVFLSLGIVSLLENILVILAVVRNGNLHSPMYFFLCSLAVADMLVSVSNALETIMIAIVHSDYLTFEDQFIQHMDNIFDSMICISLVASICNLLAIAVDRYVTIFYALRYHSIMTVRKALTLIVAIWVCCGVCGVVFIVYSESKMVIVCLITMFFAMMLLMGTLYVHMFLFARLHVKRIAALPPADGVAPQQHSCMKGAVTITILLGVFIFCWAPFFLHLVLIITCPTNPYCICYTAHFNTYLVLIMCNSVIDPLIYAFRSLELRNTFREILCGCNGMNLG
T3 sequence (P32245 whole entry): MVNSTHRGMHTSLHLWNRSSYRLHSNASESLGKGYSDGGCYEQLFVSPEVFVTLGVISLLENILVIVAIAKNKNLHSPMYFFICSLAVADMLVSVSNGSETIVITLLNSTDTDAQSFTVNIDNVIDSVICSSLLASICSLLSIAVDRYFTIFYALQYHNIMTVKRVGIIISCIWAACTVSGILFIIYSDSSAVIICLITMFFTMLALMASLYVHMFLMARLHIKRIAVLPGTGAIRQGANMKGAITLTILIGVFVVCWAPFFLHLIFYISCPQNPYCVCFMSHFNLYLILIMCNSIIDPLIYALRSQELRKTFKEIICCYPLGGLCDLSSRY
T4 sequence (P33032 whole entry): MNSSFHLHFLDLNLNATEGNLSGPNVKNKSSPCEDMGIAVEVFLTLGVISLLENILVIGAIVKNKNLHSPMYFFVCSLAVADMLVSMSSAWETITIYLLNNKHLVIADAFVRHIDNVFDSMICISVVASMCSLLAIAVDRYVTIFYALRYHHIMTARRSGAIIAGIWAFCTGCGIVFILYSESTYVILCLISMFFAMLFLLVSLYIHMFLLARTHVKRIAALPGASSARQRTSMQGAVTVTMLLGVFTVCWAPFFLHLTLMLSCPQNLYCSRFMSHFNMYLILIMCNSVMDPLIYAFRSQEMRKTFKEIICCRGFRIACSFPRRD

On to “Tyr-Val-Cys-Nle-Gly-His-D-Phe-Arg-Trp-Asp-Arg-Phe-NH2 (YVC[Nle]GH[dF]RWDRF-NH2; also: Re complex) [3-11]”, for which the % Inhibition (usually the relative decrease from the control value, in per cent) at 1 μM at Melanocortin Receptor 1 in assay [1] is given as 95%. In addition, the “% Inhibition at 1 μM at Melanocortin Receptor 3” value in assay [2] is 85%. In assay [3], the “% Inhibition at 1 μM at Melanocortin Receptor 4” value worked out at 82%. Further, in assay [4], the “% Inhibition at 1 μM at Melanocortin Receptor 5” value was 92%.
For “Ac-Ser-Tyr-Ser-Nle-Glu-His-Phe-Arg-Trp-Cys-Gly-Lys-Pro-Val-NH2 (Ac-SYS[Nle]EHFRWCGKPV-NH2; not fully specified (bridges); printed as Ac-Ser-Tyr-Ser-Nle-Glu-His-Phe-Arg-Trp-Cys-Gly-Lys-Pro-Val-NH2; numbers in words are those of the source; also: oxorhenium(V) N3S1 chelate (Re(V)=O)) [1-5]”, in assay [1], the “% Inhibition at 1 μM at Melanocortin Receptor 1” value is reported as 57%. The “% Inhibition at 1 μM at Melanocortin Receptor 3” value in assay [2] turned out to be 0%. In addition, the “% Inhibition at 1 μM at Melanocortin Receptor 4” value in assay [3] is given as 0%. In addition, in assay [4], the “% Inhibition at 1 μM at Melanocortin Receptor 5” value amounted to 0%.
“Ac-Ser-Tyr-Ser-Nle-Glu-His-Phe-Arg-Trp-Gly-Lys-Gly-Val-Cys-NH2 (Ac-SYS[Nle]EHFRWGKGVC-NH2; not fully specified (bridges); printed as Ac-Ser-Tyr-Ser-Nle-Glu-His-Phe-Arg-Trp-Gly-Lys-Gly-Val-Cys-NH2; numbers in words are those of the source; also: oxorhenium(V) N3S1 chelate (Re(V)=O)) [1-1]”: the “% Inhibition at 1 μM at Melanocortin Receptor 1” value in assay [1] worked out at 95%. The “% Inhibition at 1 μM at Melanocortin Receptor 3” value in assay [2] is given as 48%. The “% Inhibition at 1 μM at Melanocortin Receptor 4” value in assay [3] is on record as 63%. The “% Inhibition at 1 μM at Melanocortin Receptor 5” value in assay [4] is on record as 68%.
With “Tyr-Val-Nle-Gly-His-Cys-Arg-Trp-Asp-Arg-Phe-NH2 (YV[Nle]GHCRWDRF-NH2; numbers in words are those of the source; also: oxorhenium(V) N3S1 chelate (Re=O) with Cys) [5-6]”, the “% Inhibition at 1 μM at Melanocortin Receptor 1” value in assay [1] was 74%. The “% Inhibition at 1 μM at Melanocortin Receptor 3” value in assay [2] came out at 26%. In addition, the “% Inhibition at 1 μM at Melanocortin Receptor 4” value in assay [3] was 4%. In assay [4], the “% Inhibition at 1 μM at Melanocortin Receptor 5” value came to 21%.
On to “Tyr-Val-Nle-Gly-His-D-Phe-Arg-Trp-Asp-Arg-Phe-Cys-NH2 (FRWDRFC; Tyr-Val-Nle-Gly-His N-term; D-residue; amide; printed: Phe-Arg-Trp-Asp-Arg-Phe-Cys-) [3-1]”, for which the “% Inhibition at 1 μM at Melanocortin Receptor 1” value in assay [1] is recorded as 95%. In addition, the “% Inhibition at 1 μM at Melanocortin Receptor 3” value in assay [2] was found to be 96%. The “% Inhibition at 1 μM at Melanocortin Receptor 4” value in assay [3] is 98%. The “% Inhibition at 1 μM at Melanocortin Receptor 5” value in assay [4] is 102%.
As for “Ac-Ser-Tyr-Ser-Nle-Glu-His-Phe-Cys-Arg-Trp-Gly-Lys-Pro-Val-NH2 (Ac-SYS[Nle]EHFCRWGKPV-NH2; not fully specified (bridges); printed as Ac-Ser-Tyr-Ser-Nle-Glu-His-Phe-Cys-Arg-Trp-Gly-Lys-Pro-Val-NH2; numbers in words are those of the source; also: oxorhenium(V) N3S1 chelate (Re(V)=O)) [1-7]”, the “% Inhibition at 1 μM at Melanocortin Receptor 1” value in assay [1] is listed as 68%. In assay [2], the “% Inhibition at 1 μM at Melanocortin Receptor 3” value came out at 0%. Besides, the “% Inhibition at 1 μM at Melanocortin Receptor 4” value in assay [3] is 0%. The “% Inhibition at 1 μM at Melanocortin Receptor 5” value in assay [4] amounted to 0%.
For “Tyr-Val-Nle-Gly-His-Phe-Cys-Arg-Trp-Asp-Arg-Phe-NH2 (YV[Nle]GHFCRWDRF-NH2; numbers in words are those of the source; also: oxorhenium(V) N3S1 chelate (Re=O) with Cys) [4-6]”, the “% Inhibition at 1 μM at Melanocortin Receptor 1” value in assay [1] was −8%. Moreover, the “% Inhibition at 1 μM at Melanocortin Receptor 3” value in assay [2] is recorded as 5%. The “% Inhibition at 1 μM at Melanocortin Receptor 4” value in assay [3] is −2%. Also, the “% Inhibition at 1 μM at Melanocortin Receptor 5” value in assay [4] worked out at 24%.
Regarding “Ac-Ser-Tyr-Ser-Nle-Glu-D-Cys-His-Phe-Arg-Trp-Gly-Lys-Pro-Val-NH2 (Ac-SYS[Nle]E[dC]HFRWGKPV-NH2; numbers in words are those of the source; also: oxorhenium(V) N3S1 chelate via Cys (Re(V)=O)) [2-9]”, the “% Inhibition at 1 μM at Melanocortin Receptor 1” value in assay [1] turned out to be 92%. Further, the “% Inhibition at 1 μM at Melanocortin Receptor 3” value in assay [2] stood at 13%. Further, the “% Inhibition at 1 μM at Melanocortin Receptor 4” value in assay [3] was 35%. The “% Inhibition at 1 μM at Melanocortin Receptor 5” value in assay [4] is given as 2%.
“Tyr-Val-Nle-Gly-His-D-Phe-Arg-Trp-Asp-Cys-Arg-Phe-NH2 (YV[Nle]GH[dF]RWDCRF-NH2; also: Re complex) [3-3]”: the “% Inhibition at 1 μM at Melanocortin Receptor 1” value in assay [1] was 99%. For the same substance, the “% Inhibition at 1 μM at Melanocortin Receptor 3” value in assay [2] came out at 95%. Also, the “% Inhibition at 1 μM at Melanocortin Receptor 4” value in assay [3] is on record as 99%. Also, the “% Inhibition at 1 μM at Melanocortin Receptor 5” value in assay [4] amounted to 99%.
As to “Ac-Ser-Tyr-Ser-Nle-Cys-Glu-His-Phe-Arg-Trp-Gly-Lys-Pro-Val-NH2 (Ac-SYS[Nle]CEHFRWGKPV-NH2; not fully specified (bridges); printed as Ac-Ser-Tyr-Ser-Nle-Cys-Glu-His-Phe-Arg-Trp-Gly-Lys-Pro-Val-NH2; numbers in words are those of the source; also: oxorhenium(V) N3S1 chelate (Re(V)=O)) [1-10]”, in assay [1], the “% Inhibition at 1 μM at Melanocortin Receptor 1” value was 72%. Also, the “% Inhibition at 1 μM at Melanocortin Receptor 3” value in assay [2] turned out to be 0%. For the same substance, the “% Inhibition at 1 μM at Melanocortin Receptor 4” value in assay [3] is recorded as 7%. Moreover, the “% Inhibition at 1 μM at Melanocortin Receptor 5” value in assay [4] is 5%.
For “Tyr-Val-Nle-Gly-Cys-His-Phe-Arg-Trp-Asp-Arg-Phe-NH2 (YV[Nle]GCHFRWDRF-NH2; not fully specified (bridges); printed as Tyr-Val-Nle-Gly-Cys-His-Phe-Arg-Trp-Asp-Arg-Phe-NH2; numbers in words are those of the source; also: oxorhenium(V) N3S1 chelate (Re=O) with Cys) [4-8]”, in that order: 13%, 33%, −1% and 45%.
On to “Ac-Ser-Tyr-Ser-Nle-Glu-His-Phe-Arg-Trp-Gly-Lys-Gly-Cys-Val-NH2 (Ac-SYS[Nle]EHFRWGKGCV-NH2; not fully specified (bridges); printed as Ac-Ser-Tyr-Ser-Nle-Glu-His-Phe-Arg-Trp-Gly-Lys-Gly-Cys-Val-NH2; numbers in words are those of the source; also: oxorhenium(V) N3S1 chelate (Re(V)=O)) [1-2]”, for which the “% Inhibition at 1 μM at Melanocortin Receptor 1” value in assay [1] amounted to 87%. In assay [2], the “% Inhibition at 1 μM at Melanocortin Receptor 3” value was 6%. Further, the “% Inhibition at 1 μM at Melanocortin Receptor 4” value in assay [3] was 0%. For the same substance, the “% Inhibition at 1 μM at Melanocortin Receptor 5” value in assay [4] came out at 37%.
On to “Tyr-Val-Nle-Gly-His-D-Phe-Arg-Trp-Cys-Arg-Phe-NH2 (YV[Nle]GH[dF]RWCRF-NH2; numbers in words are those of the source; also: oxorhenium(V) N3S1 chelate complex (Re=O)) [5-3]”, for which the “% Inhibition at 1 μM at Melanocortin Receptor 1” value in assay [1] turned out to be 100%. Also, the “% Inhibition at 1 μM at Melanocortin Receptor 3” value in assay [2] came out at 93%. The “% Inhibition at 1 μM at Melanocortin Receptor 4” value in assay [3] is given as 97%. Also, the “% Inhibition at 1 μM at Melanocortin Receptor 5” value in assay [4] is reported as 100%.
On to “Tyr-Val-Nle-Cys-His-D-Phe-Arg-Trp-Asp-Arg-Phe-NH2 (YV[Nle]CH[dF]RWDRF-NH2; not fully specified (bridges); printed as Tyr-Val-Nle-Cys-His-D-Phe-Arg-Trp-Asp-Arg-Phe-NH2; numbers in words are those of the source; also: oxorhenium(V) N3S1 chelate complex (Re=O)) [5-8]”, for which the “% Inhibition at 1 μM at Melanocortin Receptor 1” value in assay [1] is 95%. Besides, the “% Inhibition at 1 μM at Melanocortin Receptor 3” value in assay [2] was determined as 89%. Besides, the “% Inhibition at 1 μM at Melanocortin Receptor 4” value in assay [3] came to 86%. In addition, the “% Inhibition at 1 μM at Melanocortin Receptor 5” value in assay [4] is given as 98%.
Consider YVCGH[dF]RWDRF-NH2 [5-9], for which, in assay [1], the “% Inhibition at 1 μM at Melanocortin Receptor 1” value was determined as 89%. For the same substance, in assay [2], the “% Inhibition at 1 μM at Melanocortin Receptor 3” value is given as 53%. Further, the “% Inhibition at 1 μM at Melanocortin Receptor 4” value in assay [3] is 66%. Moreover, in assay [4], the “% Inhibition at 1 μM at Melanocortin Receptor 5” value is reported as 53%.
Take “Tyr-Val-Cys-Nle-Gly-His-Phe-Arg-Trp-Asp-Arg-Phe-NH2 (YVC[Nle]GHFRWDRF-NH2; not fully specified (bridges); printed as Tyr-Val-Cys-Nle-Gly-His-Phe-Arg-Trp-Asp-Arg-Phe-NH2; numbers in words are those of the source; also: oxorhenium(V) N3S1 chelate (Re=O) with Cys) [4-10]”: in assay [1], the “% Inhibition at 1 μM at Melanocortin Receptor 1” value is listed as 28%. The “% Inhibition at 1 μM at Melanocortin Receptor 3” value in assay [2] worked out at 10%. Further, the “% Inhibition at 1 μM at Melanocortin Receptor 4” value in assay [3] is listed as 2%. Besides, the “% Inhibition at 1 μM at Melanocortin Receptor 5” value in assay [4] is reported as 17%.
